Laboratory results from US20020137095A1 (RIKEN, published 2002).
Each block holds one molecule with its values, some of them ahead of it.

Tests used:
[1] = biological target: T1, full-length mouse Reelin protein (mouse, UniProt Q60841 27-3461); test: cell adhesion assay after allowing for about 20% background, CR-50 at 20 µg/ml
T1 construct: whole, on cells; Secreted protein; Forms homophilic complexes of unstated size; also called native Reelin; full-length Reelin

[2] = biological target: T1, full-length mouse Reelin protein; test: cell adhesion assay after allowing for about 20% background, CR-50 at 50 µg/ml
[3] = biological target: T1, full-length mouse Reelin protein; test: cell adhesion assay after allowing for about 20% background, CR-50 at 200 µg/ml
[4] = biological target: the molecule itself; test: analytical gel filtration (Superdex-200), 0.15 M NaCl, pH 7.4, 40 µM sample
Protocol: A FPLC gel filtration chromatography system (Pharmacia) was used for chromatography. This system was controlled by a computer FPLC director program (Pharmacia). The sample was loaded onto a Superdex-200 gel filtration column (separation range: 10 kDa to 600 kDa, Pharmacia), which had been pre-equilibrated with a buffer containing 20 mM sodium phosphate, pH 7.4, 0.15 M NaCl, and 5 mM DTT, and then eluted at flow rate of 0.5 ml/min. The sample concentration was adjusted to 40 μM.

[5] = biological target: T1, full-length mouse Reelin protein; test: cell adhesion assay: Reelin-presenting cells on CR-50 epitope-coated dishes (200 or 50 µg/ml)
Protocol: (A) Reelin-presenting cells on CR-50 epitope-coated dish (200 μg/ml). (B) Reelin-presenting cells on control-coated dish. (C) Histograms showing cell numbers in cell adhesion assay on CR-50 epitope-coated dishes (200 or 50 μg/ml) that are normalized to the control.
The former supernatant contained full-length Reelin molecules and the latter one contained no Reelin. After nitrocellulose/methanol treatment, Petri dishes were coated overnight with each supernatant. Petri dishes coated with the CR-50 epitope were prepared by overnight incubation with recombinant CR-50 epitope proteins produced from E. coli cells. […] After incubation for 2 hours, each plate was washed with panning buffer (PBS containing 10% v/v FCS) 7 to 10 times until no floating cells remained. To examine the effect of CR-50 antibody on cell adhesion, the antibody was added to the culture medium from the beginning of incubation. Then, the cells remaining on the dishes were observed by a microscope connected to a computer-controlled camera. This experiment was repeated five times, and for each dish, five microscopic fields were scored.

T1 sequence (Q60841 27-3461): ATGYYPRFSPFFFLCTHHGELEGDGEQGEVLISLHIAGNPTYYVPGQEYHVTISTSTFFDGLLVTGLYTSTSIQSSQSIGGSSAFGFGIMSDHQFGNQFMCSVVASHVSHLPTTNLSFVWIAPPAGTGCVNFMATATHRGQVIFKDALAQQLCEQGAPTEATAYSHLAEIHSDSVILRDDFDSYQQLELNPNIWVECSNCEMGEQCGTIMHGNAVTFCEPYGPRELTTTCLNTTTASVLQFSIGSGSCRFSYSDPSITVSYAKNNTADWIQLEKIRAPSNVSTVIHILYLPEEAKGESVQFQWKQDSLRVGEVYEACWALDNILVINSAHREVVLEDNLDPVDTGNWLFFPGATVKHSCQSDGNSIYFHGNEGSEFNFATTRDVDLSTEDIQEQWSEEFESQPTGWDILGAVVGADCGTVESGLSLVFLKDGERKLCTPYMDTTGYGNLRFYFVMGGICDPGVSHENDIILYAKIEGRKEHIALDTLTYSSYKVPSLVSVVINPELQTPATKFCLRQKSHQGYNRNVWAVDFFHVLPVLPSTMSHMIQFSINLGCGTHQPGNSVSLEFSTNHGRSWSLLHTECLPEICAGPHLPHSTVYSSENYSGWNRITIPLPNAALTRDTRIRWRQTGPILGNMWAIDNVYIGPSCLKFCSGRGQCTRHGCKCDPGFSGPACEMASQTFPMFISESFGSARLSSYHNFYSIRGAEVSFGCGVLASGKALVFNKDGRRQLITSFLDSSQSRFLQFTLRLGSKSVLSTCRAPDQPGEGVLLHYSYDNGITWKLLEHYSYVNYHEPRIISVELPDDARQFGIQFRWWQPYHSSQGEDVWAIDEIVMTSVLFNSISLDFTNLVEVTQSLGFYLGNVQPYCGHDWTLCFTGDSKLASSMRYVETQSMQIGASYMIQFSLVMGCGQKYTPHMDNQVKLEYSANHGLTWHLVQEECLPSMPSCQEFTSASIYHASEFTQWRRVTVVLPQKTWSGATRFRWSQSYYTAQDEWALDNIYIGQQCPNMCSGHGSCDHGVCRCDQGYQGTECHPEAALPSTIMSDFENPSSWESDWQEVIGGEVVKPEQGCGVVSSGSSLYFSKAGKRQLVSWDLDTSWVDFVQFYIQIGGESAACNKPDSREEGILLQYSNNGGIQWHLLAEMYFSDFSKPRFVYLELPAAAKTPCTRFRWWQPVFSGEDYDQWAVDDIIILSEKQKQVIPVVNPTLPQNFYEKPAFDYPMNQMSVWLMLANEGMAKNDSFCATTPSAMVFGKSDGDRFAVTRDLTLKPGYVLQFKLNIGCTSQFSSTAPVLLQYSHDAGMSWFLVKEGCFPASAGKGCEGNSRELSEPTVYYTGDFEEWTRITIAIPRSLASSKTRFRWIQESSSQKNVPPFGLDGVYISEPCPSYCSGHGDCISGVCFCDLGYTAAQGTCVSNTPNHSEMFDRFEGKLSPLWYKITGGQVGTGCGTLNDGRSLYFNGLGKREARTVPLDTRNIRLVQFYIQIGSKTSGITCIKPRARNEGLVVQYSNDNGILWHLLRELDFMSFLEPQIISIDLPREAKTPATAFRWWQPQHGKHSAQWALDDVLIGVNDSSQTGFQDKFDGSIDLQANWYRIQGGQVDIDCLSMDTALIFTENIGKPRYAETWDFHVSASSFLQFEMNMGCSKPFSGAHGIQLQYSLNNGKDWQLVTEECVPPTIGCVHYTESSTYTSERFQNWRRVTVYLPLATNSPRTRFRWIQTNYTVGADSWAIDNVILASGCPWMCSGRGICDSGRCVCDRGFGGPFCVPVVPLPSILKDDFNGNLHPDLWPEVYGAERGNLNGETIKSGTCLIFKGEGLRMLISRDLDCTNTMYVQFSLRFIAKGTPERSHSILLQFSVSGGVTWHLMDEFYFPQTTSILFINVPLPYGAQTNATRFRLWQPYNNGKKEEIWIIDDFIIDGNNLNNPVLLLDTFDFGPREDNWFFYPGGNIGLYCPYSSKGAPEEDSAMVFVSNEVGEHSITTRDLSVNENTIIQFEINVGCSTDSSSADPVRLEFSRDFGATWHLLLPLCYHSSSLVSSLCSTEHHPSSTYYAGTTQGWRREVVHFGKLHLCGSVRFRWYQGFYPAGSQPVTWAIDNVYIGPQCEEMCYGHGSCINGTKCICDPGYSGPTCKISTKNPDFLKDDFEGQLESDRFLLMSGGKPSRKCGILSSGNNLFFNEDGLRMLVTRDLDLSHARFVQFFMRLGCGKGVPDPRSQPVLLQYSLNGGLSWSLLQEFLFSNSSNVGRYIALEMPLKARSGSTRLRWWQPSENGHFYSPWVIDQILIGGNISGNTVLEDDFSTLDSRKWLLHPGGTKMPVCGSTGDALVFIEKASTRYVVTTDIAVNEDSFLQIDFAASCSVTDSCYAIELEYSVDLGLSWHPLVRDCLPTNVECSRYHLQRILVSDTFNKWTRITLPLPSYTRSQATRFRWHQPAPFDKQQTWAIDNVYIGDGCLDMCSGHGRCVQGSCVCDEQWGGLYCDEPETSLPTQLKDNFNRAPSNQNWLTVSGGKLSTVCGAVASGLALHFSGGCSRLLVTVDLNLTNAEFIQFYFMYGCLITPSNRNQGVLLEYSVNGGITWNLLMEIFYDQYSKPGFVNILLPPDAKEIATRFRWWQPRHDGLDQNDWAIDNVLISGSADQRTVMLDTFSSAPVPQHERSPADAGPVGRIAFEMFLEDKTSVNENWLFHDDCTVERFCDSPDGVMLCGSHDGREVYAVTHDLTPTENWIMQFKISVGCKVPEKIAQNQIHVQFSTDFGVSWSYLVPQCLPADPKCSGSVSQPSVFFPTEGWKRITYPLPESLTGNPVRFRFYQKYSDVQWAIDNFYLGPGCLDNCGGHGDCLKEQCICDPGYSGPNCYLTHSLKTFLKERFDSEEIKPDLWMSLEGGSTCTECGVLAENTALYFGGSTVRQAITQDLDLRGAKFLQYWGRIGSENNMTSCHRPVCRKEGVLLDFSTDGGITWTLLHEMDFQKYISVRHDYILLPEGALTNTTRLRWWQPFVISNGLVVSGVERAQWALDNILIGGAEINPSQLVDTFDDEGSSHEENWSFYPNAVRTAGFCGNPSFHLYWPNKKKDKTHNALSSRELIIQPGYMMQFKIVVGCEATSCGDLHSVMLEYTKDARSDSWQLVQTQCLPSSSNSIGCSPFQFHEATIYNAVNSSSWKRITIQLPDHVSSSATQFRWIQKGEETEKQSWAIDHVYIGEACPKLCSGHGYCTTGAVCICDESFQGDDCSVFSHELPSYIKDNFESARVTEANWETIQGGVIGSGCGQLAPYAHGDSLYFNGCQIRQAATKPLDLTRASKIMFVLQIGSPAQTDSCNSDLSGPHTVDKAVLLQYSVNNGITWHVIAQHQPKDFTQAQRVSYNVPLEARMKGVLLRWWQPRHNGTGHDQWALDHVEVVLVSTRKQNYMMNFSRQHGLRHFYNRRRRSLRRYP

specific binding left, fraction of the control (fraction of specific binding) [1]: 0.33 | specific binding left, fraction of the control (fraction of specific binding) [2]: 0.25 | specific binding left, fraction of the control (fraction of specific binding) [3]: 0.1
Molecule: CR-50 antibody

binding result [5]: binds
B1: recombinant CR-50 epitope fragment of Reelin (residues 230-346) with C-terminal His-tag, from E. coli (other, not shown: small tags and cut ends)
chain: EQCGTIMHGNAVTFCEPYGPRELTTTCLNTTTASVLQFSIGSGSCRFSYSDPSITVSYAKNNTADWIQLEKIRAPSNVSTVIHILYLPEEAKGESVQFQWKQDSLRVGEVYEACWAL
notes: Under physiological conditions it forms a homopolymer of more than 600 kDa (more than 40 molecules of about 15 kDa)
binding result [4]: binds
